Some targets named below: DLG1_2, Q12959; DLG4_2, P78352; FRMPD3, Q5JV73; GRASP, Q7Z6J2; GRIP2_7, Q9C0E4; LDB3, O75112; MAGI2_2, Q86UL8; PARD3_3, Q8TEW0; PDLIM1, O00151; SCRIB_1, Q14160.
What all share (experiment): holdup assay
Holding throughout (design): key: below the threshold = too weak to quantify, mostly under pKd 3.1 to 4
What all share (details): plain residues with an end cap or a label only (N-terminal biotin on a linker: ado-ado)

The target in the next assay is T1, APBA1_1, Q02410.
T1 sequence (Q02410 651-752, limits assumed, looked up): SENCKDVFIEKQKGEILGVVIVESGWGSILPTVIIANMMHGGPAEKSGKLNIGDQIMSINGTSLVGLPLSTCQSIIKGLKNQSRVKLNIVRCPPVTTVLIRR

Another assay concerns the target T2, CARD11, Q9BXL7.
T2 sequence (Q9BXL7 662-765, limits assumed, looked up): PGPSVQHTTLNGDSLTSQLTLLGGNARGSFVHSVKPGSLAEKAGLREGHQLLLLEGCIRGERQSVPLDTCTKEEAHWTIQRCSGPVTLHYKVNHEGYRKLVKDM

A further assay concerns the target T3, DFNB31_1, Q9P202.
T3 sequence (Q9P202 135-233, limits assumed, looked up): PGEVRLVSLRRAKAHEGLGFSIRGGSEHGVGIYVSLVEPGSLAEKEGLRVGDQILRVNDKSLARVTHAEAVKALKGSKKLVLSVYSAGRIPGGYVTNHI

The target of the next assay is T4, DFNB31_2, Q9P202.
T4 sequence (Q9P202 274-371, limits assumed, looked up): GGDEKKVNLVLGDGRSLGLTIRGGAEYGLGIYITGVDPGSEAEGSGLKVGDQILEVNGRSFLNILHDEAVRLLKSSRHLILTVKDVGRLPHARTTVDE

Another assay concerns the target T5, DFNB31_3, Q9P202.
T5 sequence (Q9P202 811-907, limits assumed, looked up): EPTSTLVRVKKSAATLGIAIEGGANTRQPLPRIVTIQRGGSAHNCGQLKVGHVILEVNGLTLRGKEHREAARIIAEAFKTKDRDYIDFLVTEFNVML

In a further assay the target is T6, DVL3, Q92997.
T6 sequence (Q92997 244-331, limits assumed, looked up): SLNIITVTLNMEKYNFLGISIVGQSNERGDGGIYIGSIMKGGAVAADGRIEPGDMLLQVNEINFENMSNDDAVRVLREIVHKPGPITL

The next assay has as its target T7, GRIP1_4, Q9Y3R0.
T7 sequence (Q9Y3R0 467-571, limits assumed, looked up): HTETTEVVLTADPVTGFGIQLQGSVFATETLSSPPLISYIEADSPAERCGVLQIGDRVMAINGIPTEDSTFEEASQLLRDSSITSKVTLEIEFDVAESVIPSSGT

A further assay deals with T8, HTRA3, P83110.
T8 sequence (P83110 354-453, limits assumed, looked up): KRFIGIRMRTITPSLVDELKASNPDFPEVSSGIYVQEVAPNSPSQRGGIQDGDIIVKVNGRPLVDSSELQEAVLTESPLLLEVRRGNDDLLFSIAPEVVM

The target of the next assay is T9, LIN7A, O14910.
T9 sequence (O14910 103-200, limits assumed, looked up): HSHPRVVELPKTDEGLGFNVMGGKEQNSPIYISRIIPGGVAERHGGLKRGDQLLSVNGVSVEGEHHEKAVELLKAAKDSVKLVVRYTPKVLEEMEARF

The next assay concerns the target T10, LIN7B, Q9HAP6.
T10 sequence (Q9HAP6 88-185, limits assumed, looked up): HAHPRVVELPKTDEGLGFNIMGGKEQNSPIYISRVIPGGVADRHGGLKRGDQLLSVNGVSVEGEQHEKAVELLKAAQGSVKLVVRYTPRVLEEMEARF

The next assay addresses T11, PDZD7_3, Q9H5P4.
T11 sequence (Q9H5P4 857-944, limits assumed, looked up): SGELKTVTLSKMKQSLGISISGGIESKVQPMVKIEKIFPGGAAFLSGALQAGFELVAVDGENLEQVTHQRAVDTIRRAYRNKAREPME

A further assay concerns the target T12, PTPN13_1, Q12923.
T12 sequence (Q12923 1088-1188, limits assumed, looked up): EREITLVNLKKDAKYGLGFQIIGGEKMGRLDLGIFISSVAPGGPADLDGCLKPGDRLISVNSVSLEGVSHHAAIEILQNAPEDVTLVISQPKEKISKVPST

A further assay concerns the target T13, SNTA1, Q13424.
T13 sequence (Q13424 82-180, limits assumed, looked up): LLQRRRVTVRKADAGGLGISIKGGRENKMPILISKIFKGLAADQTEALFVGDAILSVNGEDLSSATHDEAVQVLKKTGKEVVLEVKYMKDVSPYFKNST

Another assay deals with T14, TIAM2, Q8IVF5.
T14 sequence (Q8IVF5 885-986, limits assumed, looked up): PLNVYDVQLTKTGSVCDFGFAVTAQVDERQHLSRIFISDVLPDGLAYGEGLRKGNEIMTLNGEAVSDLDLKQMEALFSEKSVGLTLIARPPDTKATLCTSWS

The results in this text go back to article PMC9482650, “Quantitative fragmentomics allow affinity mapping of interactomes” (Nature Communications, 2022).

By pKd is commonly meant −log10 of the Kd, conventionally taken in molar units.

DLG1_2, Q12959, sequence (Q12959 314-412): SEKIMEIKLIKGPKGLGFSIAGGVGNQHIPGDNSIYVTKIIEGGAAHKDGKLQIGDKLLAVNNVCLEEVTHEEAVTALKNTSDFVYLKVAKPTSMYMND
PARD3_3, Q8TEW0, sequence (Q8TEW0 582-685): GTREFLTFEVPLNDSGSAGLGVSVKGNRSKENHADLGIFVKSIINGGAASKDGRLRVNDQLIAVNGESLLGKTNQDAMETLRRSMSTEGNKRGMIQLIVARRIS
DLG4_2, P78352, sequence (P78352 155-259): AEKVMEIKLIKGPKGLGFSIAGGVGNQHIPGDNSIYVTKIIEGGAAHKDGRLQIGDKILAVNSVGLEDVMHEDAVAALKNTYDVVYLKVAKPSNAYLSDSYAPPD
FRMPD3, Q5JV73, sequence (Q5JV73 12-100): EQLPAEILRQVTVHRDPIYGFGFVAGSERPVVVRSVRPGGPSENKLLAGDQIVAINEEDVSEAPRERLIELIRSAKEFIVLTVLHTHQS
GRIP2_7, Q9C0E4, sequence (Q9C0E4 934-1023): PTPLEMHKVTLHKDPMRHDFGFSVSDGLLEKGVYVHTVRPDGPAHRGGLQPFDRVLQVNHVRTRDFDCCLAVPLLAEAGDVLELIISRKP
GRASP, Q7Z6J2, sequence (Q7Z6J2 96-193): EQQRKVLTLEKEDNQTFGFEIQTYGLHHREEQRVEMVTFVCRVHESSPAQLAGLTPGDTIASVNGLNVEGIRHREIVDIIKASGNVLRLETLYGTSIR
LDB3, O75112, sequence (O75112 1-94): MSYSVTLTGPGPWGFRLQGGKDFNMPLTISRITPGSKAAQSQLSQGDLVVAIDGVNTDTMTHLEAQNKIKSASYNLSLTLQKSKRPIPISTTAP
PDLIM1, O00151, sequence (O00151 1-87): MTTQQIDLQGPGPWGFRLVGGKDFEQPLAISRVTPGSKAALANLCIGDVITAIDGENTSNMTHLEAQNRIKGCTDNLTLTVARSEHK
SCRIB_1, Q14160, sequence (Q14160 718-814): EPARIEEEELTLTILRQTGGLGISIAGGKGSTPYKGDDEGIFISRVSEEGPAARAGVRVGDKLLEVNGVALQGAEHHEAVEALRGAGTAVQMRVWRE
MAGI2_2, Q86UL8, sequence (Q86UL8 410-522): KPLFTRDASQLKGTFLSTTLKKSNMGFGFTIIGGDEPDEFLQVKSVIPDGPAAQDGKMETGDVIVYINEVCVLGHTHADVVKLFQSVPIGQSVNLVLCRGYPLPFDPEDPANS

B1: SLC1A4, P43007 (peptide)
chain: PELESKESVL
In the case of B1, the negative-log Kd (pKd) result was “below the threshold” with APBA1_1, Q02410; “below the threshold” with CARD11, Q9BXL7; 3.6 with DFNB31_1, Q9P202; 3.5 with DFNB31_2, Q9P202; “below the threshold” with DFNB31_3, Q9P202; 4.04 with DLG1_2, Q12959. For the same molecule, the pKd in the assay with DLG4_2, P78352 was 3.91; with DVL3, Q92997, “below the threshold”; with FRMPD3, Q5JV73 it was “below the threshold”; with GRASP, Q7Z6J2, 3.87; with GRIP1_4, Q9Y3R0, “below the threshold”; with GRIP2_7, Q9C0E4, “below the threshold”. Besides, the pKd result in the assay with HTRA3, P83110 was “below the threshold”; in the assay with LDB3, O75112, “below the threshold”; with LIN7A, O14910 it was “below the threshold”; in the assay with LIN7B, Q9HAP6, “below the threshold”; with MAGI2_2, Q86UL8 it was “below the threshold”; in the assay with PARD3_3, Q8TEW0, 3.87. Besides, the pKd in the assay with PDLIM1, O00151 is 3.59; with PDZD7_3, Q9H5P4 it was 4.8; in the assay with PTPN13_1, Q12923 it was “below the threshold”; in the assay with SCRIB_1, Q14160, 4.18; in the assay with SNTA1, Q13424 it was 4.7; in the assay with TIAM2, Q8IVF5, “below the threshold”.

B2: CTNNA2, P26232 (peptide)
chain: LSEFKAMDSF
With B2, the pKd entry with APBA1_1, Q02410 was “below the threshold”; in the assay with CARD11, Q9BXL7 it was “below the threshold”; with DFNB31_1, Q9P202, “below the threshold”; with DFNB31_2, Q9P202 it was “below the threshold”; with DFNB31_3, Q9P202, “below the threshold”; with DLG1_2, Q12959 it was “below the threshold”. For the same molecule, the negative-log Kd (pKd) entry with DLG4_2, P78352 was “below the threshold”; in the assay with DVL3, Q92997, “below the threshold”; with FRMPD3, Q5JV73 it was “below the threshold”; in the assay with GRASP, Q7Z6J2, 4.13; with GRIP1_4, Q9Y3R0, “below the threshold”; in the assay with GRIP2_7, Q9C0E4 it was “below the threshold”. For the same molecule, the pKd result in the assay with HTRA3, P83110 was “below the threshold”; with LDB3, O75112 it was “below the threshold”; in the assay with LIN7A, O14910, “below the threshold”; with LIN7B, Q9HAP6 it was 3.85; with MAGI2_2, Q86UL8, “below the threshold”; in the assay with PARD3_3, Q8TEW0, “below the threshold”. Also, the pKd result was “below the threshold” with PDLIM1, O00151; “below the threshold” with PDZD7_3, Q9H5P4; “below the threshold” with PTPN13_1, Q12923; “below the threshold” in the assay with SCRIB_1, Q14160; “below the threshold” with SNTA1, Q13424; 4.11 with TIAM2, Q8IVF5.

B3: BCR, P11274 (peptide)
chain: RQSILFSTEV
Turning to B3, the negative-log Kd (pKd) result is “below the threshold” in the assay with APBA1_1, Q02410; “below the threshold” in the assay with CARD11, Q9BXL7; 4.27 in the assay with DFNB31_1, Q9P202; “below the threshold” with DFNB31_2, Q9P202; “below the threshold” with DFNB31_3, Q9P202; 4.85 with DLG1_2, Q12959. For the same molecule, the pKd is 4.81 with DLG4_2, P78352; “below the threshold” with DVL3, Q92997; “below the threshold” with FRMPD3, Q5JV73; 5.04 with GRASP, Q7Z6J2; “below the threshold” with GRIP1_4, Q9Y3R0; 3.66 with GRIP2_7, Q9C0E4. For the same molecule, the pKd with HTRA3, P83110 is 3.63; in the assay with LDB3, O75112, “below the threshold”; with LIN7A, O14910 it was 3.66; with LIN7B, Q9HAP6, “below the threshold”; in the assay with MAGI2_2, Q86UL8, 3.7; with PARD3_3, Q8TEW0, “below the threshold”. Besides, the negative logarithm of the Kd (pKd) entry with PDLIM1, O00151 is “below the threshold”; in the assay with PDZD7_3, Q9H5P4, 4.85; with PTPN13_1, Q12923, “below the threshold”; with SCRIB_1, Q14160 it was 4.69; in the assay with SNTA1, Q13424, 4.47; with TIAM2, Q8IVF5 it was “below the threshold”.

B4: HSPA5, P11021 (peptide)
chain: EEDTAEKDEL
Consider B4, for which the pKd result in the assay with APBA1_1, Q02410 was “below the threshold”; with CARD11, Q9BXL7 it was “below the threshold”; with DFNB31_1, Q9P202 it was “below the threshold”; with DFNB31_2, Q9P202, “below the threshold”; with DFNB31_3, Q9P202, 4.19; in the assay with DLG1_2, Q12959 it was “below the threshold”. The negative-log Kd (pKd) is 3.5 with DLG4_2, P78352; “below the threshold” with DVL3, Q92997; “below the threshold” in the assay with FRMPD3, Q5JV73; 3.94 with GRASP, Q7Z6J2; “below the threshold” in the assay with GRIP1_4, Q9Y3R0; “below the threshold” with GRIP2_7, Q9C0E4. Besides, the negative logarithm of the Kd (pKd) entry was “below the threshold” with HTRA3, P83110; 3.68 in the assay with LDB3, O75112; 3.49 with LIN7A, O14910; “below the threshold” with LIN7B, Q9HAP6; 3.48 in the assay with MAGI2_2, Q86UL8; “below the threshold” in the assay with PARD3_3, Q8TEW0. In addition, the pKd result in the assay with PDLIM1, O00151 is “below the threshold”; with PDZD7_3, Q9H5P4, “below the threshold”; in the assay with PTPN13_1, Q12923 it was “below the threshold”; with SCRIB_1, Q14160, “below the threshold”; in the assay with SNTA1, Q13424 it was “below the threshold”; in the assay with TIAM2, Q8IVF5 it was “below the threshold”.
